In article PMC10732398 (PLOS Pathogens, 2023):

Legend:
⍺4β7 = experiment: SPR: inhibition by linear peptides of soluble ⍺4β7 binding to a CD4 D1D2 coated surface; details: for inhibition of ⍺4β7 binding to D1D2 (in words): SPR, Fig 7B, 7D, S5 Fig; for inhibition of ⍺4β7 binding to CD4 D1D2 coated surface: SPR peptide scan (Fig 4A), ⍺4β7 pre-incubated with peptide 2 hours at room temperature, 1 mM MnCl2
From the text: We next modified our SPR -based assay in order to map the site(s) on CD4 that interacts with ⍺4β7. In this modified assay ⍺4β7 was passed over a surface coated with CD4 D1D2 in the absence or presence of 42 overlapping 15 amino acid linear peptides spanning CD4 residues 1–178 (S2 Table). Two peptides located in CD4 D1, #7 and #9, inhibited ⍺4β7 binding by ~17% (Fig 4A). The final peptide in CD4 D2, p42, inhibited binding by ~ 66%. Linear peptides often lack the true conformation of the protein from which they are derived. Additionally, the kinetic format of our assay allows for ligand-analyte rebinding during the association phase. These features render this inhibition assay somewhat insensitive. Nevertheless, the dynamic range of this assay is sufficient to identify interactions that are worthy of follow-up investigation (S4 Fig). As such, our preliminary findings raised the possibility that both D1 and D2 domains of CD4 interact with ⍺4β7. Of note, MAdCAM-1 and VCAM-1, like CD4, present two tandemly arrayed N-terminal IgSF domains (Fig 4B). In both cases, binding to ⍺4β7 is mediated by a 1° binding site in their D1s and an accessory site, located in their D2s. The term accessory is a misnomer insofar as these sites plays an essential role in ⍺4β7 binding. Follow-up experiments focused on p9 and p42, which we herein refer to as pCD4^33-47 and pCD4^165-178. pCD4^33-47 partially overlaps the D1 C’C” β-strands and a connecting loop. The primary gp120 contact site (Phe^43) lies at the N-terminal edge of this loop (Fig 4C). pCD4^165-178 includes Q^165 and K^166. These residues lie primarily within the G β-strand of D2, close to the boundary with D3. Because peptide inhibition assays sometime mediate nonspecific effects, further analysis was performed to better establish the role of these two regions of CD4 in binding to ⍺4β7.
To determine if this is the case, we employed an SPR -based assay. Biosensor surfaces were coated with either CD4 D1D2 or a 42 aa cyclic V2 peptide derived from the subtype E 92TH023 gp120 (cV2 92TH023). A third surface coated with MAdCAM-Ig was employed as a positive control. Soluble ⍺4β7 was passed over these surfaces. We then evaluated the capacity of staggered 15 aa peptides that span either CD4 D2 or gp120 V2 to inhibit this interaction (Fig 7A).
Experiments were performed using a Biacore 3000 instrument (Cytiva Life Sciences) using CM4 or CM5 sensor chips. The data were evaluated using BIAevaluation 4.1.1 software (Cytiva Life Sciences). The chip surface was activated by injecting 35 μl of a 1:1 mixture of 0.05 M N-hydroxysuccinimide and 0.2 M N-ethyl-N-(dimethylaminopropyl) carbodiimide at 5 μl/min. NeutrAvidin, HIV gp120, sCD4 (D1D2) or Hu-MAdCAM-Ig (R&D Systems) at concentrations of 5 μg/ml in 10mM NaOAc, pH 4.5, were immobilized to 250–750 resonance units (RU). After the proteins were immobilized to the desired densities, unreacted sites were blocked with 35 μl of 1 M Tris-HCl (pH 8.0). Biotinylated cyclic V2 peptides (1 μg/ml in 20 mM Tris-HCl, pH 8.0) were bound to the NeutrAvidin surfaces to densities of approximately 250–300 RU. One surface was activated and blocked without ligand as a control surface for non-specific binding. Signal from the control surface was subsequently subtracted. Running buffer was HBS (pH 7.4), 1 mM MnCl2, 0.005% Tween- 20, 0.05% soluble carboxymethyl-dextran. Binding experiments were carried out at a flow rate of 25 μl/min at 25°C. After a 2 min injection, the surface was washed for an additional 2 min in running buffer allowing dissociation of the bound ligand from the surface. The surfaces were regenerated by multiple injections of 4.5 M MgCl2 at a flow rate of 100 μl/min. Inhibition of ⍺4β7 binding by linear V2-loop and CD4 derived peptides was carried out by pre-incubating ⍺4β7 with the peptides in running buffer at the indicated concentrations for 2 hours at room temperature prior to passing them over the prepared surfaces as described above. […]

[1] = target: CD4 D1D2 protein (23 kD, aa 1-183) (human); experiment: SPR
[2] = target: BG505 SOSIP env trimer (HIV-1 BG505); experiment: SPR
[3] = target: BG505 gp120 (monomeric gp120) (HIV-1 BG505); experiment: SPR
[4] = tested on: ⍺4β7 transfected 293T cells; experiment: Flow cytometry: staining of 293T cells co-transfected with ⍺4 and β7 expression vectors; type: binding; details: Fig 1C
From the text: The FRET/FLIM results described above indicate a direct interaction between CD4 and ⍺4β7. […] To this end we employed a fluorescently labelled soluble dodecameric CD4 Ig fusion protein, termed D1D2-Ig⍺tp, that includes the two N-terminal Ig-like domains of CD4 (D1D2, aa 1–180), followed by IgG1 CH2 and CH3 domains, followed by the 18 aa tail-piece domain of IgA (⍺tp). In this oligomer, 12 D1D2-Igs are arranged in a disulphide linked daisy-chain (Fig 1A). Primary CD4^+ T cells, some of which express ⍺4β7, were reacted with D1D2-Ig⍺tp and analyzed by flow-cytometry. A second oligomeric Ig fusion protein, MicA-Ig⍺tp, which includes the two N-terminal domains of MicA, was employed as a specificity control. […] MAdCAM-Ig was employed as a positive control. […] We conclude that an oligomeric soluble CD4 that includes only its two N-terminal domains can bind to ⍺4β7 in a specific way.
Fig 1 Binding of soluble CD4 to ⍺4β7 on CD4^+ T cells. (A) Schematic of D1D2-Ig⍺tp. […] X-axis indicates geometric mean fluorescence intensity (gMFI). […]
Cells were stained with fluoresceine conjugated mAbs or recombinant proteins using standard procedures preceded by Fc receptor blocking with human IgG. […] Data were acquired using a FACSCanto II (BD Biosciences) and analyzed with FlowJo software (BD Biosciences). […]

[5] = tested on: ⍺4β7 on primary CD8^+ T cells; experiment: Flow cytometry: FAM-conjugated pCD4^165-178 binding to RA-treated primary CD8^+ T cells; parameters: species or system human; details: FAM-Ttds-labelled peptide 1.25 μg/200,000 cells in 100 μl; MnCl2; 3 independent experiments
From the text: To further investigate the interaction between pCD4^165-178 and ⍺4β7 we attached a fluorescein dye to its amino terminus via a trioxatridecan-succinamic acid (Ttds) linker (Fig 5A). A scrambled pCD4^165-178 was employed as a control. […] FIB504 and vedolizumab inhibited binding by ~50%. This inhibition pattern resembles the one we obtained when inhibiting D1D2-Ig⍺tp with the same antagonists (Fig 3). We conclude that the CD4 D2 G β-strand binds directly to the headpiece region of ⍺4β7 in a cation dependent manner. Support for this conclusion, in the form of site directed mutagenesis within the D2 G β-strand is provided below.
Fig 5 Direct binding of pCD4^165-178 to ⍺4β7 on primary T cells. (A) Sequence of FAM -conjugated pCD4^165-178 and a scrambled derivative (FAM-scr pCD4^165-178). (B) Flow-cytometry derived histogram of pCD4^165-178 binding to RA -cultured CD8^+ T cells. pCD4^165-178 in the presence (green), or absence of Mn^++(black). Unstained cells are shown (grey). (C) Binding of pCD4^165-178 and its scrambled derivative to CD8^+ T cells in the presence of MnCl2 as in panel B, and in the presence of ⍺4 and ⍺4β7 antagonists, as indicated. Y-axis indicates % cells bound. Error bars represent standard error from 3 independent experiments.
Cells were stained with fluoresceine conjugated mAbs or recombinant proteins using standard procedures preceded by Fc receptor blocking with human IgG. Buffers used were 10 mM HEPES 150 mM NaCl (HBS Buffer) with 100 μM CaCl2. 1 mM MnCl2 was also included, unless otherwise specified. Buffer without divalent cations included 0.1 mM EDTA. Unlabeled mAb or protein inhibitors were preincubated with cells or proteins at a 5X molar excess for 15 min on ice. FAM labeled peptides were used at 1.25 μg/ 200,000 cells in a 100 μl volume. Data were acquired using a FACSCanto II (BD Biosciences) and analyzed with FlowJo software (BD Biosciences). Plotted MFI values represent absolute values.

[6] = target: T1, soluble α4β7 (recombinant integrin α4β7) (UniProt P13612 35-977; P26010 20-723); experiment: SPR; details: both partners purified
T1 construct: also called integrin ⍺4β7; recombinant ⍺4β7

## IVVLAFQKASSIVY [CD4 P45, overlapping linear CD4 D2 peptide]
⍺4β7
  inhibition of ⍺4β7 binding to D1D2 (in words): unable to inhibit

## KIDIVVLAFQKASS [CD4 P44, overlapping linear CD4 D2 peptide]
⍺4β7
  inhibition of ⍺4β7 binding to D1D2 (in words): unable to inhibit

## soluble α4β7 (recombinant integrin α4β7) (from UniProt P13612 35-977; P26010 20-723) (complex)
[1]
  Ka: 2.8e+08 M⁻¹
  koff: 0.000464 s⁻¹
  kon: 130000 M⁻¹ s⁻¹
[2]
  Ka: 7.47e+08 M⁻¹
  Kd: 1.34 nM
  koff: 0.00112 s⁻¹
  kon: 840000 M⁻¹ s⁻¹
[3]
  Ka: 1.01e+09 M⁻¹
  Kd: 0.994 nM
  koff: 0.00136 s⁻¹
  kon: 1.37e+06 M⁻¹ s⁻¹

## QFHWKNSNQIKILGN [CD4 P7, overlapping linear CD4 peptide, CD4 D1]
⍺4β7
  inhibition of ⍺4β7 binding to CD4 D1D2 coated surface: ~ 17%

## VEFKIDIVVLAFQK [CD4 P43, overlapping linear CD4 D2 peptide]
⍺4β7
  inhibition of ⍺4β7 binding to D1D2 (in words): reduced inhibition relative to pCD4^165-178

## CCOCc1cc(OC)c(-c2ccc(C[C@H](NC(=O)c3c(F)cccc3F)C(=O)O)cc2)c(OC)c1 [FG, firategrast]
[4]
  inhibition of D1D2-Ig⍺tp and MAdCAM-Ig binding to ⍺4β7 transfected 293T cells (in words): inhibited
[5]
  reduction of pCD4^165-178 binding to CD8^+ T cells: ~ 80%

## QIKILGNQGSFLTKG [CD4 P9, linear CD4 D1 peptide overlapping the C'C'' β-strands and connecting loop]
⍺4β7
  inhibition of ⍺4β7 binding to CD4 D1D2 coated surface: ~ 17%

B1: MAdCAM-Ig (Fc fusion, human, UniProt Q13477 19-317, looked up)
chain: QSLQVKPLQVEPPEPVVAVALGASRQLTCRLACADRGASVQWRGLDTSLGAVQSDTGRSVLTVRNASLSAAGTRVCVGSCGGRTFQHTVQLLVYAFPDQLTVSPAALVPGDPEVACTAHKVTPVDPNALSFSLLVGGQELEGAQALGPEVQEEEEEPQGDEDVLFRVTERWRLPPLGTPVPPALYCQATMRLPGLELSHRQAIPVLHSPTSPEPPDTTSPESPDTTSPESPDTTSQEPPDTTSPEPPDKTSPEPAPQQGSTHTPRSPGSTRTRRPEISQAGPTQGEVIPTGSSKPAGDQ
notes: also called Hu-MAdCAM-Ig; recombinant MAdCAM-Ig
[6]
  Ka: 1.12e+08 M⁻¹
  Kd: 8.92 nM
  koff: 0.000863 s⁻¹
  kon: 96700 M⁻¹ s⁻¹

B2: VCAM-Ig (Fc fusion, UniProt P19320 25-698, looked up)
chain: FKIETTPESRYLAQIGDSVSLTCSTTGCESPFFSWRTQIDSPLNGKVTNEGTTSTLTMNPVSFGNEHSYLCTATCESRKLEKGIQVEIYSFPKDPEIHLSGPLEAGKPITVKCSVADVYPFDRLEIDLLKGDHLMKSQEFLEDADRKSLETKSLEVTFTPVIEDIGKVLVCRAKLHIDEMDSVPTVRQAVKELQVYISPKNTVISVNPSTKLQEGGSVTMTCSSEGLPAPEIFWSKKLDNGNLQHLSGNATLTLIAMRMEDSGIYVCEGVNLIGKNRKEVELIVQEKPFTVEISPGPRIAAQIGDSVMLTCSVMGCESPSFSWRTQIDSPLSGKVRSEGTNSTLTLSPVSFENEHSYLCTVTCGHKKLEKGIQVELYSFPRDPEIEMSGGLVNGSSVTVSCKVPSVYPLDRLEIELLKGETILENIEFLEDTDMKSLENKSLEMTFIPTIEDTGKALVCQAKLHIDDMEFEPKQRQSTQTLYVNVAPRDTTVLVSPSSILEEGSSVNMTCLSQGFPAPKILWSRQLPNGELQPLSENATLTLISTKMEDSGVYLCEGINQAGRSRKEVELIIQVTPKDIKLTAFPSESVKEGDTVIISCTCGNVPETWIILKKKAETGDTVLKSIDGAYTIRKAQLKDAGVYECESKNKVGSQLRSLTLDVQGRENNKDYFSPE
notes: also called recombinant VCAM-Ig
[6]
  Ka: 2.76e+07 M⁻¹
  Kd: 36.3 nM
  koff: 0.00141 s⁻¹
  kon: 38700 M⁻¹ s⁻¹
